Where a chain is given by its changes, count along the chain named. In names and notes the source's numbering stands.
B1: MAdCAM antibody Clone ID 19 of Table 6 (scFv) (scFv)
scFv: EVQLLESGGGLVQPGGSLRLSCAASGFTFDDYAMHWVRQAPGKGLEWVSGISWNSGSIGYADSVKGRFTISRDNSKNTLYLQMNSLRAEDTAVYYCAKDIVAAGHYYYGMDVWGQGTTVTVSSGGGGSGGGGSGGGGSGGGGSDIQMTQSPSSLSASVGDRVTITCQASQDISNYLNWYQQKPGKAPKLLIYDASNLETGVPSRFSGSGSGTDFTLTISSLQPEDFATYYCQQSYSTPLTFGGGTKVEIK
B2: MAdCAM antibody Clone ID 20 of Table 6 (scFv) (scFv)
scFv: EVQLLESGGGLVQPGGSLRLSCAASGFTFDDYAMHWVRQAPGKGLEWVSYIDTSSSHLYYADSVKGRFTISRDNSKNTLYLQMNSLRAEDTAVYYCARDEAAAGYYGMDVWGQGTTVTVSSGGGGSGGGGSGGGGSGGGGSDIQMTQSPSSLSASVGDRVTITCQAGQDISNYLNWYQQKPGKAPKLLIYDASNLETGVPSRFSGSGSGTDFTLTISSLQPEDFATYYCQQTYSTPITFGQGTKLEIK
B3: MAdCAM antibody Clone ID 23 of Table 6 (scFv) (scFv)
scFv: EVQLLESGGGLVQPGGSLRLSCAASGFTFSSYAMHWVRQAPGKGLEWVSGISGSGGSAYYADSVKGRFTISRDNSKNTLYLQMNSLRAEDTAVYYCATSQAPVDYYYYGMDVWGQGTTVTVSSGGGGSGGGGSGGGGSGGGGSDIQMTQSPSSLSASVGDRVTITCRASQSISSWLAWYQQKPGKAPKLLIYAASNLQRGVPSRFSGSGSGTDFTLTISSLQPEDFATYYCQQSYSIPITFGQGTKVEIK
B4: human IL-2M fused N-terminally to human IgG1 Fc domain (SEQ ID NO: 57) (Fc fusion)
chain: APTSSSTKKTQLQLEHLLLDLQMILNGINNYKNPKLTRMLTFKFYMPKKATELKHLQCLEEELKPLEEALNLAPSKNFHLRPRDLISDINVIVLELKGSETTFMCEYADETATIVEFLNRWITFSQSIISTLTGGGGSGGGGSGGGGSGGGGSDKTHTCPPCPAPEAAGAPSVFLFPPKPKDTLMISRTPEVTCVVVDVSHEDPEVKFNWYVDGVEVHNAKTKPREEQYNSTYRVVSVLTVLHQDWLNGKEYKCKVSNKALPAPIEKTISKAKGQPREPQVYTLPPSREEMTKNQVSLTCLVKGFYPSDIAVEWESNGQPENNYKTTPPVLDSDGSFFLYSKLTVDKSRWQQGNVFSCSVMHEALHNHYTQKSLSLSPG
notes: also called IL-2 N88D V69A, Q74P-G4Sx4-Fc
B5: IL-2M SEQ ID NO: 53 (Fc fusion)
chain: B4 chain with L53I
notes: also called IL-2 L53I N88D V69A, Q74P, C125S-G4Sx4-Fc
B6: IL-2M SEQ ID NO: 54 (Fc fusion)
chain: B4 chain with L56I
notes: also called IL-2 L56I N88D V69A, Q74P, C125S-G4Sx4-Fc
B7: IL-2M SEQ ID NO: 55 (Fc fusion)
chain: B4 chain with L80I
notes: also called IL-2 L80I N88D V69A, C125S Q74P-G4Sx4-Fc
B8: IL-2M SEQ ID NO: 56 (Fc fusion)
chain: B4 chain with L118I
notes: also called IL-2 L118I N88D V69A, Q74P, C125S-G4Sx4-Fc

biological target: T1, mouse MAdCAM protein (mouse, UniProt Q61826 22-365, limits assumed); test: Octet
T1 construct: also called recombinant mouse MAdCAM-1; mMAdCAM-1
T1 sequence (looked up): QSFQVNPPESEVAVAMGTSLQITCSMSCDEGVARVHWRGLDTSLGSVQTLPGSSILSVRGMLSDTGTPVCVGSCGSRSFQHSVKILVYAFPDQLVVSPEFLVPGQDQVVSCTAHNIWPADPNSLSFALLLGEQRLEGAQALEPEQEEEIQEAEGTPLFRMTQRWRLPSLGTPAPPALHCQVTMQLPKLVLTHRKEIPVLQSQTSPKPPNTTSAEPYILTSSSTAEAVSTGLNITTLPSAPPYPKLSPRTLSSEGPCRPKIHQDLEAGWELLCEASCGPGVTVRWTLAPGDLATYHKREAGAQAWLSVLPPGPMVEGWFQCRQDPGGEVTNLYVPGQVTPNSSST

| Binder | binding result |
| --- | --- |
| B1 | no binding |
| B2 | no binding |
| B3 | no binding |

biological target: T2, human MAdCAM protein (human, UniProt Q13477 19-317); test: Octet
T2 construct: used for Octet, SPR, ELISA and plate capture; construct not described; also called recombinant human MAdCAM; soluble monomeric human MAdCAM
T2 sequence (looked up): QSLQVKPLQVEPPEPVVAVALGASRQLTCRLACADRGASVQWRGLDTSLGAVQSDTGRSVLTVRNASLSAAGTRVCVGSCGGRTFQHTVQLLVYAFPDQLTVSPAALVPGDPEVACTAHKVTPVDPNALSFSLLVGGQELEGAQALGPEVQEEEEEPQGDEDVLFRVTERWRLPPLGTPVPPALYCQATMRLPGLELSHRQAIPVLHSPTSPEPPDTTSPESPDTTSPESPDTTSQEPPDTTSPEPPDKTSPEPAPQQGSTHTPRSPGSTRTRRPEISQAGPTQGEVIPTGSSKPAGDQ

| Binder | binding result |
| --- | --- |
| B1 | binds |
| B2 | binds |
| B3 | binds |

biological target: T3, human MAdCAM expressed on cells (human, UniProt Q13477 19-382); test: cell binding
T3 construct: whole, on cells; also called MADCAM1
T3 sequence (looked up): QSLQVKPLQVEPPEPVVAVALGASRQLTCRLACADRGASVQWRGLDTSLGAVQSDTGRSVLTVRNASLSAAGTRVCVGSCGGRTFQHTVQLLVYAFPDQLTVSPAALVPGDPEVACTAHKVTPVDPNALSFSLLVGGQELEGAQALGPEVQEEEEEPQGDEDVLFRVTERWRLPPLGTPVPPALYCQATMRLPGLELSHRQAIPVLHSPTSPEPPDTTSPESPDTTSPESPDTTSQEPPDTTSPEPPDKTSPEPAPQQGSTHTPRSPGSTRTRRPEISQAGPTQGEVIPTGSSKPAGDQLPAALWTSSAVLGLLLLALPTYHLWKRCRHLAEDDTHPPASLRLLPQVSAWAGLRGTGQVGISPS

| Binder | binding result |
| --- | --- |
| B1 | binds |
| B2 | binds |
| B3 | binds |

biological target: T4, mouse MAdCAM expressed on cells (mouse, UniProt Q61826 22-405); test: cell binding
T4 construct: whole, on cells
T4 sequence (looked up): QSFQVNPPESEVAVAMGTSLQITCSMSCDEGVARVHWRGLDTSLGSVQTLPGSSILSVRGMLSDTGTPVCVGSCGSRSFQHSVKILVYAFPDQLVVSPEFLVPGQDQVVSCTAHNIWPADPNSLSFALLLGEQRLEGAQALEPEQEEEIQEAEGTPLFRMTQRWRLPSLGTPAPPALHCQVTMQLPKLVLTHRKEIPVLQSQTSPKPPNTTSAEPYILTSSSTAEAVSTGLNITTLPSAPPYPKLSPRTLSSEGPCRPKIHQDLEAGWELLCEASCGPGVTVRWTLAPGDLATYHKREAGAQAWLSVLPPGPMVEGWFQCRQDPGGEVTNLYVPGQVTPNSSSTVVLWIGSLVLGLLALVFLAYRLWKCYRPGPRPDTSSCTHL

| Binder | binding result |
| --- | --- |
| B1 | no binding |
| B2 | no binding |
| B3 | no binding |

biological target: T5, CD25 (Homo sapiens (Human), UniProt P01589 22-240); test: ELISA, plate-bound CD25
T5 construct: also called IL-2R alpha chain
T5 sequence: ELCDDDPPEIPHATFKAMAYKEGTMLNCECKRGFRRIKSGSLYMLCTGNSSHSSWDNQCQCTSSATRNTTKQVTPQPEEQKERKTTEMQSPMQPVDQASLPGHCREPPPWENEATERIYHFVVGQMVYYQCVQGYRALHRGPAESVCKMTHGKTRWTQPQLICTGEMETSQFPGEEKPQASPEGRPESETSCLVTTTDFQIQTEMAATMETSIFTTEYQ
Procedure: An immunosorbent plate was coated with CD25 at a concentration of 0.5 μg/mL in PBS pH 7.4, 75 ul/well, and incubated overnight at 4° C. Wells were washed with PBS pH 7.4 containing 0.05% Tween-20 (wash buffer) three times, and then blocked with 200 ul/well 1% BSA in PBS pH 7.4 (block buffer) for two hours at room temperature. After three washes with wash buffer IL-2M molecules of Example 12 were diluted to eleven—two fold serial dilution in PBS containing 1% BSA and 0.05% Tween-20 (assay buffer) with 2 nM being the highest concentration. The diluted material was added to the CD25 coated plate at 75 ul/well for 1 hour at room temperature. After three washes with wash buffer, a goat biotinylated anti-IL-2 polyclonal antibody, diluted to 0.05 μg/mL in assay buffer, was added to the plate at 75 ul/well for 1 hr at room temperature. After three washes with wash buffer high sensitivity streptavidin HRP diluted in assay buffer at 1:5000 was added to the plate at 75 ul/well for 15 minutes at room temperature. After three washes with wash buffer and 1 wash with wash buffer (with no tween-20), the assay was developed with TMB, and stopped with 1N HCL. OD 450 nm was measured. The experiment included appropriate controls for non-specific binding of IL-2M molecules to the plate/block in the absence of CD25 and a negative control molecule that is unable to bind CD25.

| Binder | EC50 [nM] |
| --- | --- |
| B4 | < 1 |
| B5 | < 1 |
| B6 | < 1 |
| B7 | < 1 |
| B8 | < 1 |
